Laboratory results reported in paper PMC4385862.

Legend:
[1] = target: β1 integrin (UniProt P05556); assay: co-immunoprecipitation and Western blot; settings: reference: wild-type GFP-K18; sites S52
[2] = phosphorylation at Y342

binding against the reference [1]	Substance	other [2]
lost	keratin 18 (K18) (from UniProt P05783) S52A GFP-K18	
	ClC-3: Y342F	decreases
